# From the nanobody polyreactivity screen of Harvey et al. (2022)
# Assay: yeast display, Sf9 membrane polyspecificity reagent, FACS + sequencing; frameworks hold sequencing errors
# In short: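 Galactose induction of a Saccharomyces cerevisiae BJ5465 synthetic nanobody display library ran 36–48 hours. The cells were then stained for 1 hour at 4 °C with 10% biotinylated, detergent-solubilized Sf9 membrane reagent, pulled down on streptavidin microbeads and FACS-sorted into low and high (top ~1%) gates on expression and reagent-binding fluorescence. Labels for polyreactivity follow the gate of origin.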
row,Sequence,polyreactivity (PSR sort gate)
1,QVQHVESGGGLVQAGGSLRLSCAASGFTFRVYAMGWYRQARGKEMELVAAISRSGGSTYYADSVKRRFTISRDNEKNTVYLQMNSLKPEDTAVYYCGGGWKRGRYDYWGQGTQVTVSS,high polyreactivity
2,QVQLVESGGRLVQAGGSLRLICAASGRIFKQYAMGWYRQSPGKERELVARITGSGSRTYYADSVKGRFTISRDNAKITVYIQMKSLKPEDTAVYYCAKDRYYGKRGGAWYDYWGQGTQVTVSS,low polyreactivity
3,QVQLVESGGGLVQAGGSLRLSCAASGSTFVVYAMGWYRQAPGKERELVAAITTSDDSTYYADSVKGRFTISRDNAKNTVYLQMNSLKPEDTAVYYCAATLRWQDGYWGQGTQVTVSS,low polyreactivity
4,QVQLVESGGGLVQAGGSLRLSCAASGRIFWDYAMGWYRQAPGKERELVAGISYSGGSTSYADSVKGRFTISRDNAKNTVYLQMKSLKPEDTAVYYCAAGPSGTFFRDYDYWGQGTQVTVSS,low polyreactivity
5,QVQLVESGGGLVQAGGSLRLSCAASGRTFYRNAMGWYRQAPGKERELVAAISWRGGSTFYADSVKGRFTISRDNAKNTVYLQMNSLKPEDTAVYYCNAGSNSFSRVEYWGQGTQVTVSS,low polyreactivity
6,QVQLVESGGGLVQAGGSLRLSCAASGNTFGLYAMGWYRQAPGKEREFVADITTDGGTTYYADSVKGRFTISRDNAKNTVYLQMNSLKPEDTAVYYCAKLGTFGQHQYDYWGQGTQVTVSS,low polyreactivity
7,QVQLVESGGGLVQAGGSLRLSCAASGFIFAGYTMGWYRQAPGKERELVAAINSGGSTKYADSVKGRFTISRDNAKNTVYLHMNSLKPEDTAVYYCNADYGWYFLFDYWGQGTQVTVSS,low polyreactivity
8,QVQLVESGGGLVQAGGSLRLSCAASGFIFDANAMGWYRQAPGKERELVAAISRRGGRTYYADSVKGRFTISRDNAKNTVYLQMNSLKPEDTAVYYCAADWPDASRYGGGYWGQGTQVTVSS,high polyreactivity
9,QVQLVESGGGLVQAGGSLRLSCAASGRILYRNAMGWYRQATGKERELVAAITTRGTSTYYADSVKGRFTISRDNAKNTVYLQMNSLKPEDTSVYYCAADSWFSYRGPLYYWGQGTKVTVSS,high polyreactivity
10,QVQLVESGGGLVQAGGSLRLSCAASGSTFGINAMGWYRQAPGKERELVAAIDASGGTTYFADSVKGRFTISRDNAKNTVYLQMNSLKPEDTAVYYCAADDNYYTFGYWGQGTQVTVSS,high polyreactivity
11,QVQLVESGGGLVQAGGSLRLSCAASGSIFKYYAMGSSRQAPGKERELVAAISTGGTTNYADSVKGRFTISRDNAKNTVYLQMNSLKPEDTAVYYCNRDYLVRSRYKYYYWGQGTQVTVSS,low polyreactivity
12,QVQLVESGGGLVQAGGSLRLSCAASGRTFTYYAMGWYRQAPGKERELVAAISRGGGSTHYADSVKGRFTISRDNEKNTVYLQMNSLKPEDTAVYYCAARYSTRYKYDYWGQGTQVTVSS,high polyreactivity
13,QVQLVESGGGLGQAGGSLRLSCAASGSIFQGYTMRWYRQARGKARELVAAITRSVTSTYYADSVKGRFTISRDNAKNTVYLQMNCLKPEDTAVYYCAATAYYARYWYDYWGQGTQVTVSS,high polyreactivity
14,QVQLVESGGGLVQAGGSLRLSCAASGRTFQKYVMGWYRQEPGKEREIVAAISGGGGRTYYADSVKGRFTISRDNAKNTVYLQMNSLKPEDTAVYYCAARGLGKELDRFYYWGQGTQVTVSS,high polyreactivity
15,QVQLVESGGGLVQAGGSLRLSCAASGRIFGRYAMGWYRQAPGNERELVAAISSTGGRTYYADSVKGRFTISRDNAKNTVYLQMTSLKPEDTAVYYCAATYVHYPSMGYDYWGQGTQVTVSS,high polyreactivity
16,QVQLVESGGGLVQAGGSLRLSCAASGSTSYVYAMGWYRQAPGKERELVAAISNTGNTNYADSVKGRFTISRDNAKNTVYLQMNSLKPEDTAVYYCNADRRGENDWHERDYWGQGTQVTVSS,low polyreactivity
